What is called EC50 is the concentration needed to bring the measured effect to its halfway point. Usually EC50 (read off the curve) stands for the concentration needed to bring the measured effect to its halfway point. Low readings indicate greater potency, high ones weaker potency. One may read the Kd as the free concentration of one partner at which half of the binding sites on the other are occupied at equilibrium, for simple one-to-one binding. As usually defined, the koff is the first-order rate constant of dissociation. One may read the kon as the rate constant with which the complex forms. Higher therefore signals faster complex formation.

The target of test [1] is T1, Recombinant cyno CD16 ECD his tag protein (cynomolgus, UniProt Q8SPW2 17-208).
T1 construct: extracellular domain; Bought protein; also called cynoCD16-his; cynomolgus CD16-his
T1 sequence (Q8SPW2 17-208): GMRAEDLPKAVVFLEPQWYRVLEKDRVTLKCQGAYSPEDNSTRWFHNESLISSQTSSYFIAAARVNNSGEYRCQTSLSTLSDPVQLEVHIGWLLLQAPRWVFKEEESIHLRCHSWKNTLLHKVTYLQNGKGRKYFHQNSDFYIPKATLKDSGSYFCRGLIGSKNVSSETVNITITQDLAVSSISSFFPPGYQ
As to the kind of experiment: ELISA, plate-coated his-tagged antigen 2 ug/mL. As for the experimental part:
(§1) In order to determine the binding ability of the chimeric Abs to human CD16A protein, ELISA-based binding assay was performed as followed. […] The mixture was incubated for 1 hour at room temperature (RT). The primary antibody was recognized by a detective antibody against human IgG Fc which was conjugated with horseradish peroxidase (HRP) (Jackson Immuno, Cat. No. 109-035-008). Tetramethylbenzidine (TMB), a substrate of HRP, was added to the wells to visualize the binding signal. After sufficient color development, stop solution was added to the wells. The absorbance of the signal was detected at 450 nm with Envision multilabel plate readers (PerkinElemer). The graph and statistics analysis were generated with four-parameter nonlinear regression curve fit in Graphpad Prism 9 software.
(§2) In order to determine the cross reactivity of the chimeric Abs to cynomolgus CD16, ELISA binding assay was performed as described above. Recombinant cyno CD16 ECD his tag protein (cynoCD16-his, Acro Bio, Cat. No. FC6-C52H9) was used as the coating antigen at 2 μg/mL.

The target of test [2] is T2, hCD16A-158V-his protein (human, UniProt P08637 17-208).
T2 construct: extracellular domain; Bought protein; also called human CD16A-158V-his; Human CD16A-158V (protein)
T2 sequence (P08637 17-208 F176V): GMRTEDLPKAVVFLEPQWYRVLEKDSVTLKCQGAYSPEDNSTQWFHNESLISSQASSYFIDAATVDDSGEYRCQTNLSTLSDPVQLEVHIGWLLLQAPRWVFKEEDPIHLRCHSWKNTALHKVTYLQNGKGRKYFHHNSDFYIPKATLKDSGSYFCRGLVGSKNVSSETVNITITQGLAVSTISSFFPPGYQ
The test can be described thus: ELISA, plate-coated his-tagged antigen 2 ug/mL. How it is done: as §1, §2
Background: An ELISA detects its analyte on a solid surface through an enzyme-linked reagent.

Test [3] deals with T3, hCD16A-158F-his protein (human, UniProt P08637 17-208).
T3 construct: Bought protein
T3 sequence (P08637 17-208 limits assumed): as the sequence (P08637 17-208 F176V) above, with V160F counted along it
As to the kind of experiment: ELISA, plate-coated his-tagged antigen 2 ug/mL. As for the experimental part: as §1, §2

Test [4] concerns the target T4, human CD16B-NA1 ECD his tag protein (human, UniProt O75015 17-200).
T4 construct: extracellular domain; Bought protein; also called hCD16B-NA1-his; hCD16B-NA1 protein
As to the kind of experiment: ELISA, hCD16B-NA1-his coated at 2 ug/mL, OD450. How it is done:
as §1
In order to determine the binding ability of the chimeric Abs to human CD16B protein, ELISA binding assay was performed as previously described. Three spliced isoforms of CD16B including human CD16B-NA1 ECD his tag protein (hCD16B-NA1-his, Acro Bio, Cat: No. CDB-H5227), human CD16B-NA2 ECD his tag protein (hCD16B-NA2-his, Acro Bio, Cat: No. CDB-H82Ea) and human CD16B-SH-his protein, were used as the coating antigens at 2 μg/mL.

For test [5], the target named is T5, human CD16A-158V expressed on CHO-K1 cells (human, UniProt P08637 17-254).
T5 construct: whole, on cells; also called hCD16A-158V; CHO-K1-hCD16A-158V
T5 sequence (P08637 17-254 F176V): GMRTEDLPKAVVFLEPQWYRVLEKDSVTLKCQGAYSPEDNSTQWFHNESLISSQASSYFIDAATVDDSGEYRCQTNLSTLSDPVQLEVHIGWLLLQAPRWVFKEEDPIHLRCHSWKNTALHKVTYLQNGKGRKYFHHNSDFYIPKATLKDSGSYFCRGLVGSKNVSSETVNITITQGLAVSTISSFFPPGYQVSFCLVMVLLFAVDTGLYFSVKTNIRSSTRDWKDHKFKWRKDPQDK
As to the kind of experiment: flow cytometry, CHO-K1-hCD16A-158V cells, geometric mean. As for the experimental part: (§3) In order to evaluate the binding activity of the chimeric mAbs to human CD16A expressed on cells, cell-based binding assay was employed as followed. […] The antibody dilutions were incubated with 1×10⁵ indicated cells in the 96-well microplate for one hour at 4° C. The antibodies binding to the antigen on the cell surface were detected with PE fluorophore-conjugated anti-human IgG Fc secondary antibodies (ThermoFisher scientific, Cat. No. 12-4998-82) at a dilution rate of 1:1000. Cells were analyzed by flow cytometer LSRFortessa Cell Analyzer (BD Biosciences). Data were analyzed with Flowjo 10.0 software. The graph and statistics analysis were generated with four-parameter nonlinear regression curve fit in Graphpad Prism 9 software.
(§4) The assay was performed following the protocol described above.
In general terms: Flow cytometry measures light scatter and fluorescence of single cells or particles in a stream.

In test [6] the target is T6, human CD16A-158F expressed on CHO-K1 cells (human, UniProt P08637 17-254).
T6 construct: whole, on cells
T6 sequence (P08637 17-254): as the sequence (P08637 17-254 F176V) above, with V160F counted along it
As to the kind of experiment: flow cytometry, CHO-K1-hCD16A-158F cells, geometric mean. As for the experimental part: as §3, §4

For test [7], the target named is T2, hCD16A-158V-his protein. The test can be described thus: SPR (Biacore 8K), antibody captured on Protein A chip, antigen at 50 nM. As for the experimental part:
(§5) The binding affinity of the chimeric antibodies to human CD16A was determined with Biacore™. Briefly, the antibodies were captured with a Protein A chip. […] The antigen was allowed to dissociate for 500 s. The experiment was carried out on a Biacore™ 8K. Data analysis was carried out using Biacore™ 8K evaluation software.
(In SPR one partner is held on a chip, and binding of the other changes the refractive index at the surface.)

Test [8] concerns the target T3, hCD16A-158F-his protein. The test is described as above. How it is done:
as §5

T4 sequence (O75015 other isoform, or with tags, fused parts or gaps limits assumed): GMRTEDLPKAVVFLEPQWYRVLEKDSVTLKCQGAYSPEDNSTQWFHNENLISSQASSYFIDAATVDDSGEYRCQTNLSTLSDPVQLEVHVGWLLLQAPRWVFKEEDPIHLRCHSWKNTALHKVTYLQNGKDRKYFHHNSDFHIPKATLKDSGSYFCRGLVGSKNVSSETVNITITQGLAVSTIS

B1: P2C47-hIgG1 LALAPG (antibody)
heavy: QVQLVQSGAEVKKPGESLKVSCKASGYTFTSYYMHWVRQAPGQGLEWMGAIEPMYGSTSYAQKFQGRVTMTRDTSTSTVYMELSSLRSEDTAVYYCARGSAYYYDFADYWGQGTLVTVSSASTKGPSVFPLAPSSKSTSGGTAALGCLVKDYFPEPVTVSWNSGALTSGVHTFPAVLQSSGLYSLSSVVTVPSSSLGTQTYICNVNHKPSNTKVDKKVEPKSCDKTHTCPPCPAPEAAGGPSVFLFPPKPKDTLMISRTPEVTCVVVDVSHEDPEVKFNWYVDGVEVHNAKTKPREEQYNSTYRVVSVLTVLHQDWLNGKEYKCKVSNKALGAPIEKTISKAKGQPREPQVYTLPPSREEMTKNQVSLTCLVKGFYPSDIAVEWESNGQPENNYKTTPPVLDSDGSFFLYSKLTVDKSRWQQGNVFSCSVMHEALHNHYTQKSLSLSPGK
light: SYVLTQPSSVSVAPGQTATISCGGHNIGSKNVHWYQQRPGQSPVLVIYQDNKRPSGIPERFSGSNSGNTATLTISGTQAMDEADYYCQVWDNYSVLFGGGTKLTVLGQPKANPTVTLFPPSSEELQANKATLVCLISDFYPGAVTVAWKADGSPVKAGVETTKPSKQSNNKYAASSYLSLTPEQWKSHRSYSCQVTHEGSTVEKTVAPTECS
notes: also called benchmark antibody P2C47
B1: the EC50 worked out at 0.73 nM in test [1], 0.12 nM with hCD16A-158V-his protein [2] and 0.32 nM with hCD16A-158F-his protein [3]. For the same molecule, the binding result in test [4] was “no binding (tested: 20 nM)”. Further, the “EC50 (read off the curve)” value in test [5] and in test [6] was ~0.4 nM in each case. The Kd in the test with hCD16A-158V-his protein [7] was 1.68 nM; in the test with hCD16A-158F-his protein [8] it was 2.23 nM. Moreover, the koff with hCD16A-158V-his protein [7] turned out to be 0.00135 s⁻¹; with hCD16A-158F-his protein [8] it was 0.002 s⁻¹. Besides, the kon is 804000 M⁻¹ s⁻¹ with hCD16A-158V-his protein [7] and 897000 M⁻¹ s⁻¹ with hCD16A-158F-his protein [8].

B2: 45H6E8-hIgG1 LALAPG (antibody)
heavy: EVQLQQSGAELVRSGASVKLSCTASGFNIKDYYMQWVKQRPEQGLEWIGWIDPENGDTEYAPKFQGKATMTADTSSNTAYLQLSSLTSEDTAVYYCTTGGNYVDWGQGTTLTVSSASTKGPSVFPLAPSSKSTSGGTAALGCLVKDYFPEPVTVSWNSGALTSGVHTFPAVLQSSGLYSLSSVVTVPSSSLGTQTYICNVNHKPSNTKVDKKVEPKSCDKTHTCPPCPAPEAAGGPSVFLFPPKPKDTLMISRTPEVTCVVVDVSHEDPEVKFNWYVDGVEVHNAKTKPREEQYNSTYRVVSVLTVLHQDWLNGKEYKCKVSNKALGAPIEKTISKAKGQPREPQVYTLPPSREEMTKNQVSLTCLVKGFYPSDIAVEWESNGQPENNYKTTPPVLDSDGSFFLYSKLTVDKSRWQQGNVFSCSVMHEALHNHYTQKSLSLSPGK
light: DIVMTQSQKFMSTSVGDRVSITCKASQNVGTAVAWYQQKPGQSPKLLIYSASNRYTGVPDRFTGSGSGTDFTLTISNMQSEDLADYFCQQYSSYPLLTFGAGTNLELKRTVAAPSVFIFPPSDEQLKSGTASVVCLLNNFYPREAKVQWKVDNALQSGNSQESVTEQDSKDSTYSLSSTLTLSKADYEKHKVYACEVTHQGLSSPVTKSFNRGEC
notes: also called 45H6E8 chimeric antibody
Turning to B2, the EC50 is 0.68 nM in test [1], 0.1 nM in the test with hCD16A-158V-his protein [2] and 0.33 nM in the test with hCD16A-158F-his protein [3]. The binding result in test [4] is “no binding (tested: 20 nM)”. In addition, the “EC50 (read off the curve)” value in test [5] and in test [6] was ~0.4 nM in each case. For the same molecule, the results for the Kd with hCD16A-158V-his protein [7] and with hCD16A-158F-his protein [8] were 1.86 nM and 1.17 nM, respectively. In addition, the results for the koff with hCD16A-158V-his protein [7] and with hCD16A-158F-his protein [8] were 0.00655 s⁻¹ and 0.00455 s⁻¹, respectively. The kon was 3.52e+06 M⁻¹ s⁻¹ with hCD16A-158V-his protein [7] and 3.9e+06 M⁻¹ s⁻¹ with hCD16A-158F-his protein [8].
